Results taken from publication PMC7367873, “Dissecting the sequence determinants for dephosphorylation by the catalytic subunits of phosphatases PP1 and PP2A” (Nature Communications, 2020).

Legend:
GFP-14-3-3β = GFP-14-3-3β co-IP with LC-MS/MS, untreated GFP-14-3-3β versus GFP control (14-3-3 interactome); type: binding, human; details: 3 replicates each
[1] = test system: GFP-14-3-3β and its binding proteins; assay: GFP-14-3-3β co-IP with LC-MS/MS label-free quantification, untreated versus PP1c-treated; parameters: species or system human; details: pairwise comparison PP1 vs untreated, 3 replicates each
[2] = log2 difference, pairwise comparison untreated vs GFP, label-free quantification
[3] = log2 difference, label-free quantification
[4] = pairwise comparison untreated GFP-14-3-3β vs GFP, student's t-test, LC-MS/MS label-free quantification
[5] = student's t-test, LC-MS/MS label-free quantification

Difference (log2), PP1 vs untreated [1, 3] | Difference (log2), PP1 vs untreated [1, 5] [log2] | Molecule | Difference (log2), untreated vs GFP (GFP-14-3-3β; [2]) | Difference (log2), untreated vs GFP (GFP-14-3-3β; [4]) [log2]
1.563 |  | DDX1 (protein, UniProt Q92499 1-740, looked up) ATP-dependent RNA helicase …: MAAFSEMGVMPEIAQAVEEMDWLLPTDIQAESIPLILGGGDVLMAAETGSGKTGAFSIPVIQIVYETLKDQQEGKKGKTTIKTGASVLNKWQMNPYDRGSAFAIGSDGLCCQSREVKEWHGCRATKGLMKGKHYYEVSCHDQGLCRVGWSTMQASLDLGTDKFGFGFGGTGKKSHNKQFDNYGEEFTMHDTIGCYLDIDKGHVKFSKNGKDLGLAFEIPPHMKNQALFPACVLKNAELKFNFGEEEFKFPPKDGFVALSKAPDGYIVKSQHSGNAQVTQTKFLPNAPKALIVEPSRELAEQTLNNIKQFKKYIDNPKLRELLIIGGVAARDQLSVLENGVDIVVGTPGRLDDLVSTGKLNLSQVRFLVLDEADGLLSQGYSDFINRMHNQIPQVTSDGKRLQVIVCSATLHSFDVKKLSEKIMHFPTWVDLKGEDSVPDTVHHVVVPVNPKTDRLWERLGKSHIRTDDVHAKDNTRPGANSPEMWSEAIKILKGEYAVRAIKEHKMDQAIIFCRTKIDCDNLEQYFIQQGGGPDKKGHQFSCVCLHGDRKPHERKQNLERFKKGDVRFLICTDVAARGIDIHGVPYVINVTLPDEKQNYVHRIGRVGRAERMGLAISLVATEKEKVWYHVCSSRGKGCYNTRLKEDGGCTIWYNEMQLLSEIEEHLNCTISQVEPDIKVPVDEFDGKVTYGQKRAAGGGSYKGHVDILAPTVQELAALEKEAQTSFLHLGYLPNQLFRTF | -0.009417 | 
 | -2.1937 | HDAC4 (protein, UniProt P56524 1-1084, looked up) Histone deacetylase 4: MSSQSHPDGLSGRDQPVELLNPARVNHMPSTVDVATALPLQVAPSAVPMDLRLDHQFSLPVAEPALREQQLQQELLALKQKQQIQRQILIAEFQRQHEQLSRQHEAQLHEHIKQQQEMLAMKHQQELLEHQRKLERHRQEQELEKQHREQKLQQLKNKEKGKESAVASTEVKMKLQEFVLNKKKALAHRNLNHCISSDPRYWYGKTQHSSLDQSSPPQSGVSTSYNHPVLGMYDAKDDFPLRKTASEPNLKLRSRLKQKVAERRSSPLLRRKDGPVVTALKKRPLDVTDSACSSAPGSGPSSPNNSSGSVSAENGIAPAVPSIPAETSLAHRLVAREGSAAPLPLYTSPSLPNITLGLPATGPSAGTAGQQDAERLTLPALQQRLSLFPGTHLTPYLSTSPLERDGGAAHSPLLQHMVLLEQPPAQAPLVTGLGALPLHAQSLVGADRVSPSIHKLRQHRPLGRTQSAPLPQNAQALQHLVIQQQHQQFLEKHKQQFQQQQLQMNKIIPKPSEPARQPESHPEETEEELREHQALLDEPYLDRLPGQKEAHAQAGVQVKQEPIESDEEEAEPPREVEPGQRQPSEQELLFRQQALLLEQQRIHQLRNYQASMEAAGIPVSFGGHRPLSRAQSSPASATFPVSVQEPPTKPRFTTGLVYDTLMLKHQCTCGSSSSHPEHAGRIQSIWSRLQETGLRGKCECIRGRKATLEELQTVHSEAHTLLYGTNPLNRQKLDSKKLLGSLASVFVRLPCGGVGVDSDTIWNEVHSAGAARLAVGCVVELVFKVATGELKNGFAVVRPPGHHAEESTPMGFCYFNSVAVAAKLLQQRLSVSKILIVDWDVHHGNGTQQAFYSDPSVLYMSLHRYDDGNFFPGSGAPDEVGTGPGVGFNVNMAFTGGLDPPMGDAEYLAAFRTVVMPIASEFAPDVVLVSSGFDAVEGHPTPLGGYNLSARCFGYLTKQLMGLAGGRIVLALEGGHDLTAICDASEACVSALLGNELDPLPEKVLQQRPNANAVRSMEKVMEIHSKYWRCLQRTTSTAGRSLIEAQTCENEEAETVTAMASLSVGVKPAEKRPDEEPMEEEPPL |  | 7.6192
 | -2.312 | FOXK1 (protein, UniProt P85037 2-733, looked up) Forkhead box protein K1: AEVGEDSGARALLALRSAPCSPVLCAAAAAAAFPAAAPPPAPAQPQPPPGPPPPPPPPLPPGAIAGAGSSGGSSGVSGDSAVAGAAPALVAAAAASVRQSPGPALARLEGREFEFLMRQPSVTIGRNSSQGSVDLSMGLSSFISRRHLQLSFQEPHFYLRCLGKNGVFVDGAFQRRGAPALQLPKQCTFRFPSTAIKIQFTSLYHKEEAPASPLRPLYPQISPLKIHIPEPDLRSMVSPVPSPTGTISVPNSCPASPRGAGSSSYRFVQNVTSDLQLAAEFAAKAASEQQADTSGGDSPKDESKPPFSYAQLIVQAISSAQDRQLTLSGIYAHITKHYPYYRTADKGWQNSIRHNLSLNRYFIKVPRSQEEPGKGSFWRIDPASEAKLVEQAFRKRRQRGVSCFRTPFGPLSSRSAPASPTHPGLMSPRSGGLQTPECLSREGSPIPHDPEFGSKLASVPEYRYSQSAPGSPVSAQPVIMAVPPRPSSLVAKPVAYMPASIVTSQQPAGHAIHVVQQAPTVTMVRVVTTSANSANGYILTSQGAAGGSHDAAGAAVLDLGSEARGLEEKPTIAFATIPAAGGVIQTVASQMAPGVPGHTVTILQPATPVTLGQHHLPVRAVTQNGKHAVPTNSLAGNAYALTSPLQLLATQASSSAPVVVTRVCEVGPKEPAAAVAATATTTPATATTASASASSTGEPEVKRSRVEEPSGAVTTPAGVIAAAGPQGPGTGE |  | 5.634
 | -2.386 | AMER1 (protein, UniProt Q5JTC6 1-1135, looked up) APC membrane recruitment …: METQKDEAAQAKGAAASGSTREQTAEKGAKNKAAEATEGPTSEPSSSGPGRLKKTAMKLFGGKKGICTLPSFFGGGRSKGSGKGSSKKGLSKSKTHDGLSEAAHGPEDVVSEGTGFSLPLPELPCQFPSSQSAHGALETGSRCKTSVAGATEKAVAEKFPSMPKPKKGLKGFFSSIRRHRKSKVTGAEQSEPGAKGPERVRARPHEHVSSAPQVPCFEETFQAPRKENANPQDAPGPKVSPTPEPSPPATEKMACKDPEKPMEACASAHVQPKPAPEASSLEEPHSPETGEKVVAGEVNPPNGPVGDPLSLLFGDVTSLKSFDSLTGCGDIIAEQDMDSMTDSMASGGQRANRDGTKRSSCLVTYQGGGEEMALPDDDDEEEEEEEEVELEEEEEEVKEEEEDDDLEYLWETAQMYPRPNMNLGYHPTTSPGHHGYMLLDPVRSYPGLAPGELLTPQSDQQESAPNSDEGYYDSTTPGFEDDSGEALGLVRRDCLPRDSYSGDALYEFYEPDDSLENSPPGDDCLYDLHGRSSEMFDPFLNFEPFLSSRPPGAMETEEERLVTIQKQLLYWELRREQLEAQEARAREAHAREAHAREAYTREAYGREAYAREAHTWEAHGREARTREAQAREVRCRETQVRETQARQEKPVLEYQMRPLGPSVMGLAAGVSGTSQISHRGITSAFPTTASSEPDWRDFRPLEKRYEGTCSKKDQSTCLMQLFQSDAMFEPDMQEANFGGSPRRAYPTYSPPEDPEEEEVEKEGNATVSFSQALVEFTSNGNLFSSMSCSSDSDSSFTQNLPELPPMVTFDIADVERDGEGKCEENPEFHNDEDLAASLEAFELGYYHKHAFNNYHSRFYQGLPWGVSSLPRYLGLPGLHPRPPPAAMALNRRSRSLDTAETLEMELSNSHLVQGYLESDELQAQQEDSDEEDEEEEEGEWSRDSPLSLYTEPPGAYDWPAWAPCPLPVGPGPAWISPNQLDRPSSQSPYRQATCCIPPMTMSISLSVPESRAPGESGPQLARPSHLHLPMGPCYNLQPQASQSMRARPRDVLLPVDEPSCSSSSGGFSPSPLPQAKPVGITHGIPQLPRVRPEHPQPQPTHYGPSSLDLSKERAEQGASLATSYSSTAMNGNLAK |  | 1.494
5.4303 |  | RNPC3 (protein, UniProt Q96LT9 1-517, looked up) RNA-binding region-containing …: MAAPEQPLAISRGCTSSSSLSPPRGDRTLLVRHLPAELTAEEKEDLLKYFGAQSVRVLSDKGRLKHTAFATFPNEKAAIKALTRLHQLKLLGHTLVVEFAKEQDRVHSPCPTSGSEKKKRSDDPVEDDKEKKELGYLTVENGIAPNHGLTFPLNSCLKYMYPPPSSTILANIVNALASVPKFYVQVLHLMNKMNLPTPFGPITARPPMYEDYMPLHAPLPPTSPQPPEEPPLPDEDEELSSEESEYESTDDEDRQRMNKLMELANLQPKRPKTIKQRHVRKKRKIKDMLNTPLCPSHSSLHPVLLPSDVFDQPQPVGNKRIEFHISTDMPAAFKKDLEKEQNCEEKNHDLPATEVDASNIGFGKIFPKPNLDITEEIKEDSDEMPSECISRRELEKGRISREEMETLSVFRSYEPGEPNCRIYVKNLAKHVQEKDLKYIFGRYVDFSSETQRIMFDIRLMKEGRMKGQAFIGLPNEKAAAKALKEANGYVLFGKPMVVQFARSARPKQDPKEGKRKC | -2.187 | 
 | -2.212 | FGD6 (protein, UniProt Q6ZV73 1-1430, looked up) FYVE, RhoGEF and PH …: MTSAAEIKKPPVAPKPKFVVANNKPAPPPIAPKPDIVISSVPQSTKKMKPAIAPKPKVLKTSPVREIGQSPSRKIMLNLEGHKQELAESTDNFNCKYEGNQSNDYISPMCSCSSECIHKLGHRENLCVKQLVLEPLEMNENLENSKIDETLTIKTRSKCDLYGEKAKNQGGVVLKASVLEEELKDALIHQMPPFISAQKHRPTDSPEMNGGCNSNGQFRIEFADLSPSPSSFEKVPDHHSCHLQLPSDECEHFETCQDDSEKSNNCFQSSELEALENGKRSTLISSDGVSKKSEVKDLGPLEIHLVPYTPKFPTPKPRKTRTARLLRQKCVDTPSESTEEPGNSDSSSSCLTENSLKINKISVLHQNVLCKQEQVDKMKLGNKSELNMESNSDAQDLVNSQKAMCNETTSFEKMAPSFDKDSNLSSDSTTVDGSSMSLAVDEGTGFIRCTVSMSLPKQLKLTCNEHLQSGRNLGVSAPQMQKESVIKEENSLRIVPKKPQRHSLPATGVLKKAASEELLEKSSYPSSEEKSSEKSLERNHLQHLCAQNRGVSSSFDMPKRASEKPVWKLPHPILPFSGNPEFLKSVTVSSNSEPSTALTKPRAKSLSAMDVEKCTKPCKDSTKKNSFKKLLSMKLSICFMKSDFQKFWSKSSQLGDTTTGHLSSGEQKGIESDWQGLLVGEEKRSKPIKAYSTENYSLESQKKRKKSRGQTSAANGLRAESLDDQMLSRESSSQAPYKSVTSLCAPEYENIRHYEEIPEYENLPFIMAIRKTQELEWQNSSSMEDADANVYEVEEPYEAPDGQLQLGPRHQHSSSGASQEEQNDLGLGDLPSDEEEIINSSDEDDVSSESSKGEPDPLEDKQDEDNGMKSKVHHIAKEIMSSEKVFVDVLKLLHIDFRDAVAHASRQLGKPVIEDRILNQILYYLPQLYELNRDLLKELEERMLHWTEQQRIADIFVKKGPYLKMYSTYIKEFDKNIALLDEQCKKNPGFAAVVREFEMSPRCANLALKHYLLKPVQRIPQYRLLLTDYLKNLIEDAGDYRDTQDALAVVIEVANHANDTMKQGDNFQKLMQIQYSLNGHHEIVQPGRVFLKEGILMKLSRKVMQPRMFFLFNDALLYTTPVQSGMYKLNNMLSLAGMKVRKPTQEAYQNELKIESVERSFILSASSATERDEWLEAISRAIEEYAKKRITFCPSRSLDEADSENKEEVSPLGSKAPIWIPDTRATMCMICTSEFTLTWRRHHCRACGKIVCQACSSNKYGLDYLKNQPARVCEHCFQELQKLDHQHSPRIGSPGNHKSPSSALSSVLHSIPSGRKQKKIPAALKEVSANTEDSSMSGYLYRSKGNKKPWKHFWFVIKNKVLYTYAASEDVAALESQPLLGFTVIQVKDENSESKVFQLLHKNMLFYVFKAEDAHSAQKWIEAFQEGTIL |  | 2.545
